Measurements reported in publication PMC7046716, “Oligomerization and characteristics of phosphoenolpyruvate carboxylase in Synechococcus PCC 7002” (Scientific Reports, 2020).
Several values for one entry are separate records, joined by “and”; a condition that tells them apart may be missing. Equal entries are not always repeated. Each block holds one compound with its values, some of them ahead of it.

Key:
[1] = test system: T1, PEPc PCC 7002 (Strep-column purified, mixed oligomer population); assay: malate dehydrogenase-coupled NADH assay, […] nm, Hanes-Woolf plot; assay type: biochemical, Picosynechococcus sp. PCC 7002; settings: pH 7.5, 35 °C, mixed dimer/tetramer
T1 construct: gene ppc; N-terminal Strep-tag kept, E. coli BL21, pETBB; dimer/tetramer mixture purified with Mg2+

[2] = test system: T2, T_PEPc PCC 7002 (tetramer fraction of PEPc from Synechococcus PCC 7002); assay: as above; assay type: biochemical, Picosynechococcus sp. PCC 7002; settings: pH 8.0, 35 °C, SEC tetramer fraction
T2 construct: gene ppc; N-terminal Strep-tag kept, E. coli BL21, pETBB

[3] = molecular target: Phosphoenolpyruvate carboxylase (PEPc) from Synechococcus PCC 7002 (Synechococcus PCC 7002); assay: SEC; HiLoad 16/60 Superdex 200, 4 °C, TBS pH 8.0 with 5 mM NaHCO3; 500 µg protein at 0.87 mg/ml; dimer and tetramer peaks
[4] = molecular target: Phosphoenolpyruvate carboxylase (PEPc) from Synechococcus PCC 7002 (Synechococcus PCC 7002); assay: SEC; HiLoad 16/60 Superdex 200, 4 °C, TBS pH 8.0 with 5 mM PEP; 500 µg protein at 0.87 mg/ml; dimer and tetramer peaks
[5] = molecular target: Phosphoenolpyruvate carboxylase (PEPc) from Synechococcus PCC 7002 (Synechococcus PCC 7002); assay: SEC; HiLoad 16/60 Superdex 200, 4 °C, TBS pH 8.0 with 10 mM MgCl2 and 5 mM NaHCO3; 500 µg protein at 0.87 mg/ml; dimer and tetramer peaks
[6] = molecular target: Phosphoenolpyruvate carboxylase (PEPc) from Synechococcus PCC 7002 (Synechococcus PCC 7002); assay: SEC; HiLoad 16/60 Superdex 200, 4 °C, TBS pH 8.0 with 10 mM MgCl2 and 5 mM PEP; 500 µg protein at 0.87 mg/ml; dimer and tetramer peaks
[7] = molecular target: Phosphoenolpyruvate carboxylase (PEPc) from Synechococcus PCC 7002 (Synechococcus PCC 7002); assay: SEC; HiLoad 16/60 Superdex 200, 4 °C, TBS pH 8.0 with 25 mM MgCl2 (Mg_25); 500 µg protein at 0.87 mg/ml; dimer and tetramer peaks
[8] = molecular target: Phosphoenolpyruvate carboxylase (PEPc) from Synechococcus PCC 7002 (Synechococcus PCC 7002); assay: SEC; HiLoad 16/60 Superdex 200, 4 °C, TBS pH 8.0 with 5 mM NaHCO3 and 5 mM PEP; 500 µg protein at 0.87 mg/ml; dimer and tetramer peaks
[9] = molecular target: Phosphoenolpyruvate carboxylase (PEPc) from Synechococcus PCC 7002 (Synechococcus PCC 7002); assay: SEC; HiLoad 16/60 Superdex 200, 4 °C, TBS (100 mM Tris-HCl, 150 mM NaCl) pH 8.0, no addition; 500 µg protein at 0.87 mg/ml, incubated 30 min at room temperature in the same buffer; dimer and tetramer peaks
[10] = molecular target: Phosphoenolpyruvate carboxylase (PEPc) from Synechococcus PCC 7002 (Synechococcus PCC 7002); assay: SEC-SAXS; Shodex KW-403 4.6 ml column, room temperature, 50 µl protein at 6.5 or 0.87 mg/ml in TBS pH 8.0 or TBS with 25 mM MgCl2; beamline B21, Diamond Light Source; three peaks analysed separately
[11] = molecular target: Phosphoenolpyruvate carboxylase (PEPc) from Synechococcus PCC 7002 (Synechococcus PCC 7002); assay: SEC; HiLoad 16/60 Superdex 200, 4 °C, TBS pH 8.0 with 10 mM MgCl2 (Mg_10); 500 µg protein at 0.87 mg/ml; dimer and tetramer peaks
[12] = molecular target: Phosphoenolpyruvate carboxylase (PEPc) from Synechococcus PCC 7002 (Synechococcus PCC 7002); assay: SEC; HiLoad 16/60 Superdex 200, 4 °C, TBS pH 8.0 with 10 mM MgCl2, 5 mM NaHCO3 and 5 mM PEP (in vitro reaction); 500 µg protein at 0.87 mg/ml; dimer and tetramer peaks
[13] = 10 mM MgCl2, co-substrate PEP (5 mM in the standard assay)
[14] = 10 mM MgCl2, co-substrate NaHCO3 (5 mM in the standard assay)

Km [1, 13]: 970 µM
Km [2, 13]: 240 µM
Compound: O=C(O)O [HCO3^−]

Km [1, 14]: 1060 µM
Km [2, 14]: 770 µM
Compound: C=C(OP(=O)(O)O)C(=O)O [PEP]

ratio tetramer:dimer (peak values) (tetramer:dimer) [3]: 0
stoichiometry N [3]: 2
ratio tetramer:dimer (peak values) (tetramer:dimer) [4]: 1.1
stoichiometry N [4]: 4 and 2
ratio tetramer:dimer (peak values) (tetramer:dimer) [5]: 0.8
stoichiometry N [5]: 4 and 2
ratio tetramer:dimer (peak values) (tetramer:dimer) [6]: 1.3
stoichiometry N [6]: 4 and 2
ratio tetramer:dimer (peak values) (tetramer:dimer) [7]: 1.4
stoichiometry N [7]: 4 and 2
ratio tetramer:dimer (peak values) (tetramer:dimer) [8]: 0.8
stoichiometry N [8]: 4 and 2
ratio tetramer:dimer (peak values) (tetramer:dimer) [9]: 0
stoichiometry N [9]: 2
stoichiometry N [10]: 4 and 2
ratio tetramer:dimer (peak values) (tetramer:dimer) [11]: 0
stoichiometry N [11]: 2
stoichiometry N [12]: 4 and 2
Compound: Phosphoenolpyruvate carboxylase (PEPc) from Synechococcus PCC 7002 (enzyme)
